Test results from paper PMC3695229.
Residue numbers refer to the chain shown, from its start. Values belong to the binder of their own block, whether it stands above or below them.

Biological target: human TGF-β2 (human)
Test: SPR; Biacore 2000; biotinylated ligands immobilised on streptavidin-coated CM5 chip, TGFR-3-ZP variants as analytes; 25°C, HBS500 (10 mM HEPES pH 7.4, 500 mM NaCl, 3.4 mM EDTA, 0.005% P20); apparent affinities from equilibrium binding

- Kd: 2700 nM
B1: TGFR-3-ZP(234) (domain or fragment)
chain: REPEEVQGGVNIALSVKCDNEKMVVAVDKDSFQTNGYSGMELTLLDPSCKAKMNGTHFVLESPLNGCGTRHRRSAPDGVVYYNSIVVQAPSPGDSSGWPDGYEDLESGDNGFPGDTDEGETAPLSRAGVVVFQCSLRQLRSPSGFQDQLDGQATFNMELYNTDLFLVPSPGVFSVAENEHVYVEVSVTKADQDLGFAIQTCFISPYSNPDRMSDYTIIENICPKDDSVKFYSSKRVHFPIPHAEVDKKRFSFVFKSVFQTSLLFLHCELTLCSRNKGSQKLPKCVTPDDACTSLDATMIWTMMQNKKTFTKPLAVVLQVDYKENVPNMKESSPVPPPPQIFHGLD
modifications: one remaining potential N-glycosylation site (N491)

- Kd: 2400 nM
B2: murine TGFR-3-ZP (recombinant ZP domain of TGF-β receptor type 3, residues 438-782, including the EHP) (domain or fragment)
chain: B1 chain with Q133N, Q152N, Q259N
modifications: secretory glycoprotein; four potential N-glycosylation sites (positions 491, 570, 589 and 696)
